Assay [1] has as its target C-terminally His-tagged human ECRG4(71–132) (human) (UniProt Q9H1Z8). Put plainly: SPR; ProteOn XPR36, GLM chip; His-tagged ECRG4 peptides captured by immobilised anti-His antibody; 2 × CTLD–Fc injected at 15.6–250 nM, 60 s association, 120 s dissociation; HBS (10 mM HEPES pH 7.4, 150 mM NaCl, 3 mM EDTA, 0.05% P20); Langmuir model. (In general: Surface plasmon resonance follows binding to a sensor surface in real time, without labels.)

The target of assay [2] is C-terminally His-tagged human ECRG4(71–148) (human) (UniProt Q9H1Z8). The assay is described as above.
Assay [3] deals with C-terminally His-tagged human ECRG4(32–148) (human) (UniProt Q9H1Z8). The assay is described as above.
The next assay concerns the target LOX-1 (Homo sapiens) (UniProt P78380). As to conditions: cited from earlier work.

Here are results for 2 substances from publication PMC5840397.

Chain of CRP (P02741 19-224): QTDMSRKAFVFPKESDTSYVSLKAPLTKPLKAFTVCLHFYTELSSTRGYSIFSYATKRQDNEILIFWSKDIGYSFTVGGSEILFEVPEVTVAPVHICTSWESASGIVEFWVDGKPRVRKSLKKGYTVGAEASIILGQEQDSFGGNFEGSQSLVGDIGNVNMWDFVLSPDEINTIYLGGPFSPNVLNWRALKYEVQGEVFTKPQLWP
Chain of C-terminally His-tagged human ECRG4(71–132) (human) (Q9H1Z8 71-132): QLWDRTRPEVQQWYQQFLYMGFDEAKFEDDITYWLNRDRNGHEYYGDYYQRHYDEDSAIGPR
Chain of C-terminally His-tagged human ECRG4(32–148) (human) (Q9H1Z8 32-148): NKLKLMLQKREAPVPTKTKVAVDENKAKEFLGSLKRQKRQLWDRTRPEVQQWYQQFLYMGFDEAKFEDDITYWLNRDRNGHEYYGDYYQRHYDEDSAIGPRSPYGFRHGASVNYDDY
Chain of C-terminally His-tagged human ECRG4(71–148) (human) (Q9H1Z8 71-148): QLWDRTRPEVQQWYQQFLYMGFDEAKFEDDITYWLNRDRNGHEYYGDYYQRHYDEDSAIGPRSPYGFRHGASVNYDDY

In general, Kd refers to the free concentration of one partner at which half of the binding sites on the other are occupied at equilibrium, for simple one-to-one binding. “2 × CTLD–Fc (two human LOX-1 CTLDs in tandem, Fc-fused) (Fc fusion)”: the Kd in assay [1], in assay [2] and in assay [3] was 10 nM each time.
Take CRP (from UniProt P02741): in the assay with LOX-1 (Homo sapiens), the Kd was 160 nM.
